The text below walks through data of article PMC11166458, “Caskin2 is a novel talin- and Abi1-binding protein that promotes cell motility” (Journal of Cell Science, 2024).

In this experiment the test system is Caskin2. Put plainly: GFP-Trap pulldown of Caskin2 by GFP-tagged Abi1 constructs in COS-7 cells. The format is binding. The conditions noted are these: western blot. The protocol:
For transient expression, COS-7 cells were grown to 70% confluence in 10 cm culture dishes and transfected with plasmid DNAs using the DEAE–dextran method ([Schaapveld et al., 1998]). Briefly, 4.5 µg of plasmid DNA was mixed with 500 µg/ml DEAE–dextran in 2.5 ml PBS. Cells were washed two times with PBS and then incubated for 30 min at 37°C with the DEAE–dextran solution. Subsequently, 80 µM chloroquine was added to the cells in 10 ml DMEM with FCS and cells were incubated at 37°C for 3 h. After aspiration of the medium, the cells were treated with 3 ml of DMEM with FCS containing 10% DMSO for 2.5 min. The DMSO solution was then removed and replaced with fresh medium, after which the cells were further incubated for 48–72 h before analysis.
For analysis of protein in whole-cell lysates, cells were washed three times with cold PBS, lysed in Nonidet P-40 lysis buffer [20 mM Tris-HCl pH 7.5, 100 mM NaCl, 1% NP-40), supplemented with Na3VO4 (1.5 mM), NaF (15 mM), protease inhibitor cocktail (1:1000; Sigma-Aldrich) and phosphatase inhibitor cocktail 3 (1:100; Sigma-Aldrich)] and cleared by centrifugation at 14,000 g for 1 h at 4°C. […]
GFP-Trap pulldown experiments were performed as follows. Cleared lysates containing equal amounts of proteins, as determined by a Pierce™ BCA Protein Assay, were incubated with GFP-Trap agarose beads (Chromotek) in a rotation wheel for 6 h at 4°C. […]
(A western blot detects proteins with antibodies after separation by electrophoresis.)

B1: GFP–Abi1-DAWN: GFP-tagged Abi1 mutant harboring the mutations D453A and W455N (protein)
chain: MAELQMLLEEEIPSGKRALIESYQNLTRVADYCENNYIQATDKRKALEETKAYTTQSLASVAYQINALANNVLQLLDIQASQLRRMESSINHISQTVDIHKEKVARREIGILTTNKNTSRTHKIIAPANMERPVRYIRKPIDYTVLDDVGHGVKWLKAKHGNNQPARTGTLSRTNPPTQKPPSPPMSGRGTLGRNTPYKTLEPVKPPTVPNDYMTSPARLGSQHSPGRTASLNQRPRTHSGSSGGSGSRENSGSSSIGIPIAVPTPSPPTIGPAPGSAPGSQYGTMTRQISRHNSTTSSTSSGGYRRTPSVTAQFSAQPHVNGGPLYSQNSISIAPPPPPMPQLTPQIPLTGFVARVQENIADSPTPPPPPPPDDIPMFDDSPPPPPPPPVDYEDEEAAVVQYNDPYADGDPAWAPKNYIEKVVAIYDYTKDKDDELSFMEGAIIYVIKKNDAGNYEGVCNRVTGLFPGNYVESIMHYTD
modifications: left off: GFP, end not stated, kept
notes: GFP-tagged Abi1 mutant harboring the mutations D453A and W455N
On to B1, for which the “Caskin2 precipitation by Abi1 construct” value is recorded as “unable to precipitate Caskin2”.
